Measured values taken from the supplement of paper PMC10567573.

B1: RSPH3 (parent)
chain: VDVQTELYLEEIADRIIEVDMECQ

Variants of: B1
Assay: protein stability index of a GFP-peptide fusion (GPS, HEK-293T) (PSI 1-6); higher = more stable
Conditions: c terminus: a fixed tail appended
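Also: lentivirally expressed fusions sorted by FACS into six bins by GFP to DsRed ratio, PSI derived from sequencing read proportions per bin multiplied by bin number.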

| Variant | protein stability index |
| --- | --- |
| D20V | 2.51 |
| D20I | 3.01 |
| D20S | 1.65 |
| D20Q | 3.34 |
| D20H | 2.46 |
| D20E | 1.71 |
| D20F | 3.1 |
| D20P | 3.46 |
| D20Y | 4.28 |
| D20N | 1.82 |
| D20A | 2.54 |
| D20L | 4.62 |
| D20R | 1.15 |
| L9Y | 2.79 |
| L9C | 3.4 |
| L9H | 4.71 |
| L9V | 2.91 |
| L9T | 4.38 |
| L9D | 5.51 |
| L9M | 3.33 |
| L9K | 4.65 |
| L9P | 4.5 |
| L9W | 1.97 |
| L9A | 4.01 |

| Variant | protein stability index |
| --- | --- |
| L9I | 2.33 |
| L9S | 4.92 |
| L9R | 4.19 |
| L9Q | 5.62 |
| L9E | 5.12 |
| L9G | 4.44 |
| L9N | 5.14 |
| L9F | 2.21 |
| T5G | 2.46 |
| T5E | 3.08 |
| T5M | 2.38 |
| T5P | 3.27 |
| T5N | 3.23 |
| T5A | 2.3 |
| T5Y | 3.42 |
| T5H | 2.42 |
| T5K | 3.87 |
| T5C | 1.75 |
| T5R | 3.09 |
| T5D | 3.17 |
| T5S | 2.5 |
| T5Q | 2.52 |
| T5F | 2.96 |
| R15H | 2.77 |

| Variant | protein stability index |
| --- | --- |
| R15N | 3.66 |
| R15A | 2.55 |
| R15E | 3.55 |
| R15T | 2.56 |
| R15C | 1.54 |
| R15M | 2.24 |
| R15G | 3.14 |
| R15P | 3.73 |
| R15W | 3.01 |
| R15Q | 3.58 |
| R15V | 2.65 |
| R15D | 3.17 |
| R15K | 3.1 |
| R15F | 2.31 |
| R15S | 3.16 |
| R15Y | 2.79 |
| I17S | 3.74 |
| I17E | 3.87 |
| I17V | 2.39 |
| I17N | 2.81 |
| I17Q | 3.47 |
| I17G | 4.14 |
| I17P | 4.26 |
| I17M | 1.87 |

| Variant | protein stability index |
| --- | --- |
| I17F | 1.96 |
| I17K | 3.65 |
| I17R | 3.33 |
| I17A | 2.41 |
| I17D | 3.99 |
| I17T | 3.6 |
| I17L | 2.17 |
| I17Y | 2.09 |
| I17H | 2.94 |
| I17C | 2.58 |
| E10A | 1.53 |
| E10T | 1.86 |
| E10N | 2.06 |
| E10P | 3.62 |
| E10Q | 1.93 |
| E10G | 2.42 |
| E10S | 2.39 |
| E10R | 2.15 |
| E10H | 2 |
| E10K | 2.48 |
| E10C | 1.58 |
| E10Y | 3.16 |
| E10D | 2.54 |
| E10W | 3.73 |

| Variant | protein stability index |
| --- | --- |
| E10F | 2.25 |
| E6D | 2.03 |
| E6S | 2.39 |
| E6A | 1.73 |
| E6R | 2.52 |
| E6L | 1.65 |
| E6F | 1.64 |
| E6G | 3.25 |
| E6W | 2.21 |
| E6V | 2.24 |
| E6P | 3.41 |
| E6N | 2.18 |
| E6M | 3.63 |
| E6C | 1.57 |
| E6H | 2.19 |
| E6Q | 2.14 |
| E6K | 2.44 |
| E6T | 1.83 |
| V19I | 2.36 |
| V19L | 1.59 |
| V19G | 4.16 |
| V19C | 1.89 |
| V19M | 2.79 |
| V19T | 3.95 |

| Variant | protein stability index |
| --- | --- |
| V19Y | 2.58 |
| V19D | 5.01 |
| V19E | 4.65 |
| V19K | 4.5 |
| V19W | 2.28 |
| V19N | 4.1 |
| V19R | 4.23 |
| V19H | 3.55 |
| V19F | 2.3 |
| V19P | 4.3 |
| V19A | 3.81 |
| V19Q | 3.76 |
| V19S | 4.1 |
| A13T | 2.62 |
| A13C | 2.31 |
| A13S | 2.57 |
| A13N | 3.2 |
| A13H | 2.5 |
| A13Y | 1.53 |
| A13V | 2.17 |
| A13W | 1.65 |
| A13F | 2.41 |
| A13M | 1.58 |
| A13D | 3.9 |

| Variant | protein stability index |
| --- | --- |
| A13K | 3.05 |
| A13Q | 3.05 |
| A13E | 2.87 |
| A13R | 2.27 |
| A13G | 2.95 |
| A13I | 2.22 |
| A13P | 3.53 |
| I16V | 3.37 |
| I16G | 4.3 |
| I16H | 4.19 |
| I16E | 4.48 |
| I16K | 4.49 |
| I16C | 2.85 |
| I16F | 1.87 |
| I16A | 3.63 |
| I16R | 3.23 |
| I16M | 2.36 |
| I16P | 4.93 |
| I16W | 2.97 |
| I16Y | 2.57 |
| I16T | 4.19 |
| I16D | 4.54 |
| I16Q | 4.18 |
